In US20230293680A1 (Genmab, published 2023):
“And” between values parts separate entries of the source, which are not always exact repeats. Equal values may be shown once.

Columns and labels:
DR5sh79-115ECDdelHis = molecular target: T1, DR5sh79-115ECDdelHis (human/mouse chimeric); experiment: ECLIA, coated DR5sh79-115ECDdelHis, detection with SULFO-TAG anti-human IgG
T1 construct: also called DR5sh79-115ECDdel-FcRbHisCtag

[1] = molecular target: T2, Cyno DR5Mfdel-K420N (cynomolgus monkey DR5 with deletion of amino acids 185-213 and death domain … (cynomolgus monkey)); experiment: flow cytometry on CHO-S cells transiently expressing cynomolgus monkey DR5; average of n = 4, SD in brackets
T2 construct: Transiently expressed on the membrane of CHO-S cells; Based on NCBI XP_005562887.1
T2 chain: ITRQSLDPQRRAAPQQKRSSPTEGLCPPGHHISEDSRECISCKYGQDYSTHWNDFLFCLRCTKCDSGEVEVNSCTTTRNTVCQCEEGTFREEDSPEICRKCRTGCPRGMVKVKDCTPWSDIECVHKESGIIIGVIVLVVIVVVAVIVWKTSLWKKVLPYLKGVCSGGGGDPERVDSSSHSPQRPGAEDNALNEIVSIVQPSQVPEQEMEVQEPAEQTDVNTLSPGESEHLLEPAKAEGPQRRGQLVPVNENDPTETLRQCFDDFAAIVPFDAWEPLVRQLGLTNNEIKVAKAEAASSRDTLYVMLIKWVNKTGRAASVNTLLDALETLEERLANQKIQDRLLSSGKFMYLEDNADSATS

DR5sh139-166ECDdelHis = molecular target: T3, DR5sh139-166ECDdelHis (human/mouse chimeric); experiment: ECLIA, coated DR5sh139-166ECDdelHis, detection with SULFO-TAG anti-human IgG
T3 construct: also called DR5sh139-166ECDdel-FcRbHisCtag
T3 chain: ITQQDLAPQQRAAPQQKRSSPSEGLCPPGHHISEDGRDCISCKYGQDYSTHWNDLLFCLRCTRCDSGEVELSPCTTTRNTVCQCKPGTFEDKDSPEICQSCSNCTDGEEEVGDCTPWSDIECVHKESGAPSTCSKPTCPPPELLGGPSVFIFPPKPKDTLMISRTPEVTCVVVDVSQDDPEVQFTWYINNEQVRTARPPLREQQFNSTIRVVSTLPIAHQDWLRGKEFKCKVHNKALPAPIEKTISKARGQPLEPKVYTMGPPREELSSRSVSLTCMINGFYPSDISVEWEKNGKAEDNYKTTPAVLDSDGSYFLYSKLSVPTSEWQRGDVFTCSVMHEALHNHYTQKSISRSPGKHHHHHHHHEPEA

binding result (DR5sh79-115ECDdelHis)	binding result (DR5sh139-166ECDdelHis)	Binder	EC50 [1]
no binding	–	IgG1-hDR5-05-E430G (antibody, V domains shown, also called second antibody; component of HexaBody-DR5/DR5) VH: QVQLVQSGAEVKKPGASVKVSCKASGFNIKDTHMHWVRQAPGQRLEWIGRIDPANGNTEYDQKFQGRVTITVDTSASTAYMELSSLRSEDTAVYYCARWGTNVYFAYWGQGTLVTVSS VL: DIQLTQSPSSLSASVGDRVTITCSASSSVSYMYWYQQKPGKAPKPWIYRTSNLASGVPSRFSGSGSGTDFTLTISSLQPEDFATYYCQQYHSYPPTFGGGTKVEIKR	0.17 µg/mL and 1.16 nM
–	no binding	IgG1-hDR5-01-G56T-E430G (antibody, V domains shown, also called first antibody; component of HexaBody-DR5/DR5) VH: EVQLQQSGAEVVKPGASVKLSCKASGFNIKDTFIHWVKQAPGQGLEWIGRIDPANTNTKYDPKFQGKATITTDTSSNTAYMELSSLRSEDTAVYYCVRGLYTYYFDYWGQGTLVTVSS VL: EIVMTQSPATLSVSPGERATLSCRASQSISNNLHWYQQKPGQAPRLLIKFASQSITGIPARFSGSGSGTEFTLTISSLQSEDFAVYYCQQGNSWPYTFGQGTKLEIKR	0.27 µg/mL and 1.77 nM
